Source: paper PMC7592216

Test system: eIF4E (eukaryotic translation initiation factor 4E, cap-binding protein) (wheat)
Assay: EMSA
Settings: 10 mM HEPES pH 7.5, 20 mM KCl, 1 mM DTT, 3 mM MgCl2, 0.1 ug/ul yeast tRNA, 1 ug/ul BSA, 1 U/ul RNaseOUT, 20 mM Tris-HCl/10% glycerol; 25 min on ice; 10 fmol …

## MTE (MCMV 3' CITE), uncapped
  Kd: 0.08 µM
